{"source": "the supplement of paper PMC5998384", "key": {"HeLa Kyoto [1]": {"tested_on": "HeLa Kyoto", "assay": "solubility in G1/S (NP-40 vs SDS abundance) (log2 ratio); higher = more soluble", "settings": "cell cycle stage: G1/S"}, "HeLa Kyoto [2]": {"tested_on": "HeLa Kyoto", "assay": "melting temperature (median over replicates), in situ; higher = more thermally stable"}, "HeLa Kyoto [3]": {"tested_on": "HeLa Kyoto", "assay": "solubility change mitosis vs G1/S (difference of NP-40 vs SDS log2 ratios) (log2 ratio difference); higher = more soluble in mitosis"}, "HeLa Kyoto [4]": {"tested_on": "HeLa Kyoto", "assay": "thermal stability score vs G1/S (z-score of summed log2 fold changes over temperatures); higher = more thermally stable than in G1/S"}, "[5]": {"settings": "cell cycle stage: early G1 (4.5 h after nocodazole release)"}}, "data": [{"sequence": "MSAPDEGRRDPPKPKGKTLGSFFGSLPGFSSARNLVANAHSSARARPAADPTGAPAAEAAQPQAQVAAHPEQTAPWTEKELQPSEKMVSGAKDLVCSKMSRAKDAVSSGVASVVDVAKGVVQGGLDTTRSALTGTKEVVSSGVTGAMDMAKGAVQGGLDTSKAVLTGTKDTVSTGLTGAVNVAKGTVQAGVDTTKTVLTGTKDTVTTGVMGAVNLAKGTVQTGVETSKAVLTGTKDAVSTGLTGAVNVARGSIQTGVDTSKTVLTGTKDTVCSGVTGAMNVAKGTIQTGVDTSKTVLTGTKDTVCSGVTGAMNVAKGTIQTGVDTSKTVLTGTKDTVCSGVTGAMNVAKGTIQTGVDTTKTVLTGTKNTVCSGVTGAVNLAKEAIQGGLDTTKSMVMGTKDTMSTGLTGAANVAKGAMQTGLNTTQNIATGTKDTVCSGVTGAMNLARGTIQTGVDTTKIVLTGTKDTVCSGVTGAANVAKGAVQGGLDTTKSVLTGTKDAVSTGLTGAVNVAKGTVQTGVDTTKTVLTGTKDTVCSGVTSAVNVAKGAVQGGLDTTKSVVIGTKDTMSTGLTGAANVAKGAVQTGVDTAKTVLTGTKDTVTTGLVGAVNVAKGTVQTGMDTTKTVLTGTKDTIYSGVTSAVNVAKGAVQTGLKTTQNIATGTKNTFGSGVTSAVNVAKGAAQTGVDTAKTVLTGTKDTVTTGLMGAVNVAKGTVQTSVDTTKTVLTGTKDTVCSGVTGAANVAKGAIQGGLDTTKSVLTGTKDAVSTGLTGAVKLAKGTVQTGMDTTKTVLTGTKDAVCSGVTGAANVAKGAVQMGVDTAKTVLTGTKDTVCSGVTGAANVAKGAVQTGLKTTQNIATGTKNTLGSGVTGAAKVAKGAVQGGLDTTKSVLTGTKDAVSTGLTGAVNLAKGTVQTGVDTSKTVLTGTKDTVCSGVTGAVNVAKGTVQTGVDTAKTVLSGAKDAVTTGVTGAVNVAKGTVQTGVDASKAVLMGTKDTVFSGVTGAMSMAKGAVQGGLDTTKTVLTGTKDAVSAGLMGSGNVATGATHTGLSTFQNWLPSTPATSWGGLTSSRTTDNGGEQTALSPQEAPFSGISTPPDVLSVGPEPAWEAAATTKGLATDVATFTQGAAPGREDTGLLATTHGPEEAPRLAMLQNELEGLGDIFHPMNAEEQAQLAASQPGPKVLSAEQGSYFVRLGDLGPSFRQRAFEHAVSHLQHGQFQARDTLAQLQDCFRLIEKAQQAPEGQPRLDQGSGASAEDAAVQEERDAGVLSRVCGLLRQLHTAYSGLVSSLQGLPAELQQPVGRARHSLCELYGIVASAGSVEELPAERLVQSREGVHQAWQGLEQLLEGLQHNPPLSWLVGPFALPAGGQ [PLIN4]", "values": [{"measurement": "solubility in G1/S (log2)", "setting": "HeLa Kyoto [1]", "value": 0.21}, {"measurement": "melting temperature", "setting": "HeLa Kyoto [2]; cell cycle stage: G1/S", "value": 52.4, "unit": "°C"}, {"measurement": "melting temperature", "setting": "HeLa Kyoto [2]; cell cycle stage: mitosis", "value": 52.3, "unit": "°C"}, {"measurement": "solubility change mitosis (log2)", "setting": "HeLa Kyoto [3]", "value": -0.0221}, {"measurement": "thermal stability score", "setting": "HeLa Kyoto [4]; [5]", "value": 1.29}, {"measurement": "thermal stability score", "setting": "HeLa Kyoto [4]; cell cycle stage: mitosis", "value": 2.31}]}, {"sequence": "MSAPSEEEEYARLVMEAQPEWLRAEVKRLSHELAETTREKIQAAEYGLAVLEEKHQLKLQFEELEVDYEAIRSEMEQLKEAFGQAHTNHKKVAADGESREESLIQESASKEQYYVRKVLELQTELKQLRNVLTNTQSENERLASVAQELKEINQNVEIQRGRLRDDIKEYKFREARLLQDYSELEEENISLQKQVSVLRQNQVEFEGLKHEIKRLEEETEYLNSQLEDAIRLKEISERQLEEALETLKTEREQKNSLRKELSHYMSINDSFYTSHLHVSLDGLKFSDDAAEPNNDAEALVNGFEHGGLAKLPLDNKTSTPKKEGLAPPSPSLVSDLLSELNISEIQKLKQQLMQMEREKAGLLATLQDTQKQLEHTRGSLSEQQEKVTRLTENLSALRRLQASKERQTALDNEKDRDSHEDGDYYEVDINGPEILACKYHVAVAEAGELREQLKALRSTHEAREAQHAEEKGRYEAEGQALTEKVSLLEKASRQDRELLARLEKELKKVSDVAGETQGSLSVAQDELVTFSEELANLYHHVCMCNNETPNRVMLDYYREGQGGAGRTSPGGRTSPEARGRRSPILLPKGLLAPEAGRADGGTGDSSPSPGSSLPSPLSDPRREPMNIYNLIAIIRDQIKHLQAAVDRTTELSRQRIASQELGPAVDKDKEALMEEILKLKSLLSTKREQITTLRTVLKANKQTAEVALANLKSKYENEKAMVTETMMKLRNELKALKEDAATFSSLRAMFATRCDEYITQLDEMQRQLAAAEDEKKTLNSLLRMAIQQKLALTQRLELLELDHEQTRRGRAKAAPKTKPATPSL [BICD2]", "values": [{"measurement": "solubility in G1/S (log2)", "setting": "HeLa Kyoto [1]", "value": 0.628}, {"measurement": "melting temperature", "setting": "HeLa Kyoto [2]; cell cycle stage: G1/S", "value": 49.7, "unit": "°C"}, {"measurement": "melting temperature", "setting": "HeLa Kyoto [2]; cell cycle stage: mitosis", "value": 49.1, "unit": "°C"}, {"measurement": "solubility change mitosis (log2)", "setting": "HeLa Kyoto [3]", "value": 0.0849}, {"measurement": "thermal stability score", "setting": "HeLa Kyoto [4]; [5]", "value": -0.115}, {"measurement": "thermal stability score", "setting": "HeLa Kyoto [4]; cell cycle stage: mitosis", "value": 0.199}]}, {"sequence": "MSASVVSVISRFLEEYLSSTPQRLKLLDAYLLYILLTGALQFGYCLLVGTFPFNSFLSGFISCVGSFILAVCLRIQINPQNKADFQGISPERAFADFLFASTILHLVVMNFVG [DAD1]", "values": [{"measurement": "solubility in G1/S (log2)", "setting": "HeLa Kyoto [1]", "value": -0.0329}, {"measurement": "melting temperature", "setting": "HeLa Kyoto [2]; cell cycle stage: G1/S", "value": 54.5, "unit": "°C"}, {"measurement": "melting temperature", "setting": "HeLa Kyoto [2]; cell cycle stage: mitosis", "value": 54.2, "unit": "°C"}, {"measurement": "solubility change mitosis (log2)", "setting": "HeLa Kyoto [3]", "value": -0.257}, {"measurement": "thermal stability score", "setting": "HeLa Kyoto [4]; [5]", "value": 0.505}, {"measurement": "thermal stability score", "setting": "HeLa Kyoto [4]; cell cycle stage: mitosis", "value": -0.552}]}, {"sequence": "MSCAGAAAAPRLWRLRPGARRSLSAYGRRTSVRFRSSGMTLDNISRAAVDRIIRVDHAGEYGANRIYAGQMAVLGRTSVGPVIQKMWDQEKDHLKKFNELMVTFRVRPTVLMPLWNVLGFALGAGTALLGKEGAMACTVAVEESIAHHYNNQIRTLMEEDPEKYEELLQLIKKFRDEELEHHDIGLDHDAELAPAYAVLKSIIQAGCRVAIYLSERL [COQ7]", "values": [{"measurement": "solubility in G1/S (log2)", "setting": "HeLa Kyoto [1]", "value": -0.0496}, {"measurement": "melting temperature", "setting": "HeLa Kyoto [2]; cell cycle stage: G1/S", "value": 56.1, "unit": "°C"}, {"measurement": "melting temperature", "setting": "HeLa Kyoto [2]; cell cycle stage: mitosis", "value": 53.4, "unit": "°C"}, {"measurement": "solubility change mitosis (log2)", "setting": "HeLa Kyoto [3]", "value": -0.0504}, {"measurement": "thermal stability score", "setting": "HeLa Kyoto [4]; [5]", "value": -2.12}, {"measurement": "thermal stability score", "setting": "HeLa Kyoto [4]; cell cycle stage: mitosis", "value": -0.639}]}, {"sequence": "MSCPVPACCALLLVLGLCRARPRNALLLLADDGGFESGAYNNSAIATPHLDALARRSLLFRNAFTSVSSCSPSRASLLTGLPQHQNGMYGLHQDVHHFNSFDKVRSLPLLLSQAGVRTGIIGKKHVGPETVYPFDFAYTEENGSVLQVGRNITRIKLLVRKFLQTQDDRPFFLYVAFHDPHRCGHSQPQYGTFCEKFGNGESGMGRIPDWTPQAYDPLDVLVPYFVPNTPAARADLAAQYTTVGRMDQGVGLVLQELRDAGVLNDTLVIFTSDNGIPFPSGRTNLYWPGTAEPLLVSSPEHPKRWGQVSEAYVSLLDLTPTILDWFSIPYPSYAIFGSKTIHLTGRSLLPALEAEPLWATVFGSQSHHEVTMSYPMRSVQHRHFRLVHNLNFKMPFPIDQDFYVSPTFQDLLNRTTAGQPTGWYKDLRHYYYRARWELYDRSRDPHETQNLATDPRFAQLLEMLRDQLAKWQWETHDPWVCAPDGVLEEKLSPQCQPLHNEL [SGSH]", "values": [{"measurement": "solubility in G1/S (log2)", "setting": "HeLa Kyoto [1]", "value": 0.401}, {"measurement": "melting temperature", "setting": "HeLa Kyoto [2]; cell cycle stage: G1/S", "value": 53.5, "unit": "°C"}, {"measurement": "melting temperature", "setting": "HeLa Kyoto [2]; cell cycle stage: mitosis", "value": 58, "unit": "°C"}, {"measurement": "solubility change mitosis (log2)", "setting": "HeLa Kyoto [3]", "value": -0.261}, {"measurement": "thermal stability score", "setting": "HeLa Kyoto [4]; [5]", "value": -1.28}, {"measurement": "thermal stability score", "setting": "HeLa Kyoto [4]; cell cycle stage: mitosis", "value": -1.81}]}]}
